From patent publication US10406204B2, “Multimeric antimicrobial peptide complex which is displayed on cell surface” (KOREA ADVANCED INSTITUTE OF SCIENCE AND TECHNOLOGY, priority 2010, dated 2019)

Columns and labels:
Test in all cases: Antimicrobial activity of pepsin-treated E. coli displaying multimeric antimicrobial peptide complex
Format in all cases: cell-based
Conditions in all cases: pepsin-digested in SGF 30 minutes; E. coli BL21 (DE3) = 0%, synthesized Hinge2L = 100%; OD595
[1] = tested on: yeast Saccharomyces cerevisiae
Description: (§1) The antimicrobial effect of the E. coli strain, constructed in Example 4 and displaying the multimeric antimicrobial peptide complex on the cell surface, was measured. Specifically, the transformed E. coli BL21 (DE3) was cultured in 100 ml of LB medium, and when the culture medium reached an OD600 of 0.5-0.6, 0.2 mM IPTG was added thereto to induce the expression of the multimeric antimicrobial peptide complex linked to the cell surface anchoring motif. 4 hours after the induction of the expression, the medium was removed, and the cells were washed twice with NAPB (sodium phosphate buffer), and then resuspended in the same buffer. All the E. coli samples were adjusted to a cell number of 1×10^10 cfu/ml. Then, pepsin was dissolved in simulated gastric fluid (SGF) (0.084 N HCl, 35 mM NaCl, pH 1.2 or 2.0), and the E. coli cells were treated with the pepsin solution and incubated for 30 minutes. After the incubation, in order to deactivate pepsin and neutralize the pH, the same concentration of NaOH aqueous solution as that of the simulated gastric fluid was added to the cells, and the cell solution was centrifuged to remove cell debris other than the monomeric antimicrobial peptide digested by pepsin.
(§2) The antimicrobial activities of the pepsin-digested monomeric antimicrobial peptide against gram-positive Staphylococus aureus, gram-negative Escherichia coli and the yeast Saccharomyces cerevisiae were measured.
(§3) Each of the microbial strains was collected in the exponential growth phase during the culture, washed twice with NAPB, and then resuspended in the same buffer. The number of the microbial cells was adjusted to 1×10^5 cfu/ml. 10 μl of an aqueous solution containing each microbial strain and the pepsin-digested monomeric antimicrobial peptide was dispensed into each well of a 96-well plate, mixed well and incubated at 37° C. for 3 hours. After 3 hours, 2×TSB (Trypticase Soy Broth) medium was added to the cells which were then incubated at 37° C. for 12 hours, after which the absorbance at OD595 was measured.

[2] = tested on: gram-negative Escherichia coli
Description: as §1, §2, §3

[3] = tested on: gram-positive Staphylococus aureus
Description: as §1, §2, §3

B1: LH3: trimer of antimicrobial peptide Hinge2L linked to cell surface anchoring motif Lpp-OmpA, displayed on E. coli BL21 (DE3) (protein)
chain: MKATKLVLGNNNGPTHENQLGAGAFGGYQVNPYVGFEMGYDWLGRMPYKGSVENGAYKAQGVQLTAKLGYPITDDLDIYTRLGGMVWRADTKSNVYGKNHDTGVSPVFAGGVEYAITPEIATRGRLRVVRQWPIGRVVRRVVRRVVRLRVVRQWPIGRVVRRVVRRVVRLRVVRQWPIGRVVRRVVRRVVRL
modifications: displayed on E. coli BL21(DE3); DNA sequence of Lpp-OmpA-Hinge2L3
For B1, the antimicrobial activity [1] was 33.17%, the antimicrobial activity [2] was 30% and the antimicrobial activity [3] was 17.95%.
